14 molecules from patent US20230382997A1 (published 2023) can be followed below.

Residue numbers refer to the chain shown, from its start.

Holding throughout (experiment): multimer staining
In assay [1] the target is T1, CT 83 peptide on HLA-A*02:01 (human).
T1 peptide: LLASSILCA

In assay [2] the target is T2, MAGE B2 peptide on HLA-A*02:01 (human).
T2 peptide: GVYDGEEHSV

Assay [3] addresses T3, MAGE A3 peptide on HLA-A*01:01 (human).
T3 peptide: EVDPIGHLY

Assay [4] concerns the target T4, CT 83 peptide on HLA-B*44:02 (human).
T4 peptide: GEMSSNSTAL

B1: TCR19 (TCR, V domains shown)
Valpha: AQKVTQAQTEISVVEKEDVTLDCVYETRDTTYYLFWYKQPPSGELVFLIRRNSFDEQNEISGRYSWNFQKSTSSFNFTITASQVVDSAVYFCALLSSGGYNKLIFGAGTRLAVHP
Vbeta: NAGVTQTPKFQVLKTGQSMTLQCAQDMNHEYMSWYRQDPGMGLRLIHYSVGAGITDQGEVPNGYNVSRSTTEDFPLRLLSAAPSQTSVYFCASSYLSPAAGFSYEQYFGPGTRLTVT
As to B1, the binding result in assay [1] is listed as “recognises”.

B2: TCR26 (TCR, V domains shown)
Valpha: GENVEQHPSTLSVQEGDSAVIKCTYSDSASNYFPWYKQELGKRPQLIIDIRSNVGEKKDQRIAVTLNKTAKHFSLHITETQPEDSAVYFCAASSLREGYSTLTFGKGTMLLVSP
Vbeta: NAGVTQTPKFRVLKTGQSMTLLCAQDMNHEYMYWYRQDPGMGLRLIHYSVGEGTTAKGEVPDGYNVSRLKKQNFLLGLESAAPSQTSVYFCASSSTDLNEQFFGPGTRLTVL
In the case of B2, the binding result in assay [2] is listed as “recognises”.

B3: TCR2 (TCR, V domains shown)
Valpha: ILNVEQSPQSLHVQEGDSTNFTCSFPSSNFYALHWYRWETAKSPEALFVMTLNGDEKKKGRISATLNTKEGYSYLYIKGSQPEDSATYLCAFSNARLMFGDGTQLVVKP
Vbeta: DTAVSQTPKYLVTQMGNDKSIKCEQNLGHDTMYWYKQDSKKFLKIMFSYNNKELIINETVPNRFSPKSPDKAHLNLHINSLELGDSAVYFCASSQEAGTGSYNEQFFGPGTRLTVL
On to B3, for which the binding result in assay [3] is “recognises”.

B4: TCR29 (TCR, V domains shown)
Valpha: AQKVTQAQTEISVVEKEDVTLDCVYETRDTTYYLFWYKQPPSGELVFLIRRNSFDEQNEISGRYSWNFQKSTSSFNFTITASQVVDSAVYFCALSEAWGNAGNMLTFGGGTRLMVKP
Vbeta: GAGVSQSPRYKVTKRGQDVALRCDPISGHVSLYWYRQALGQGPEFLTYFNYEAQQDKSGLPNDRFSAERPEGSISTLTIQRTEQRDSAMYRCASSPGQQNTEAFFGQGTRLTVV
As to B4, the binding result in assay [4] is given as “recognises”.

B5: TCR32 (TCR, V domains shown)
Valpha: ILNVEQSPQSLHVQEGDSTNFTCSFPSSNFYALHWYRWETAKSPEALFVMTLNGDEKKKGRISATLNTKEGYSYLYIKGSQPEDSATYLCAFIVHQAGTALIFGKGTTLSVSS
Vbeta: B4 Vbeta with P96L, Q98L, Q99L, N100Y, T101N, A103Q, Q107P, V114L
For the molecule B5, the binding result in assay [4] is reported as “recognises”.

B6: TCR28 (TCR, V domains shown)
Valpha: AQKITQTQPGMFVQEKEAVTLDCTYDTSDQSYGLFWYKQPSSGEMIFLIYQGSYDEQNATEGRYSLNFQKARKSANLVISASQLGDSAMYFCAMRGDPQGAQKLVFGQGTRLTINP
Vbeta: ETGVTQTPRHLVMGMTNKKSLKCEQHLGHNAMYWYKQSAKKPLELMFVYSLEERVENNSVPSRFSPECPNSSHLFLHLHTLQPEDSALYLCASSQGRGKNIQYFGAGTRLSVL
As for B6, the binding result in assay [2] is recorded as “recognises”.

B7: TCR30 (TCR, V domains shown)
Valpha: EDKVVQSPLSLVVHEGDTVTLNCSYEVTNFRSLLWYKQEKKAPTFLFMLTSSGIEKKSGRLSSILDKKELFSILNITATQTGDSAVYLCAVVPDNTDKLIFGTGTRLQVFP
Vbeta: GAGVSQSPRYKVTKRGQDVALRCDPISGHVSLYWYRQALGQGPEFLTYFNYEAQQDKSGLPNDRFSAERPEGSISTLTIQRTEQRDSAMYRCASSWGGSNTGELFFGEGSRLTVL
Take B7: the binding result in assay [4] is reported as “recognises”.

B8: TCR23 (TCR, V domains shown)
Valpha: LAKTTQPISMDSYEGQEVNITCSHNNIATNDYITWYQQFPSQGPRFIIQGYKTKVTNEVASLFIPADRKSSTLSLPRVSLSDTAVYYCLVGDIPSVDGGFKTIFGAGTRLFVKA
Vbeta: EAQVTQNPRYLITVTGKKLTVTCSQNMNHEYMSWYRQDPGLGLRQIYYSMNVEVTDKGDVPEGYKVSRKEKRNFPLILESPSPNQTSLYFCASSTSLELDQPQHFGDGTRLSIL
In the case of B8, in assay [1], the binding result is listed as “recognises”.

B9: TCR54 (TCR, V domains shown)
Valpha: EDQVTQSPEALRLQEGESSSLNCSYTVSGLRGLFWYRQDPGKGPEFLFTLYSAGEEKEKERLKATLTKKESFLHITAPKPEDSATYLCAVYNQAGTALIFGKGTTLSVSS
Vbeta: EAQVTQNPRYLITVTGKKLTVTCSQNMNHEYMSWYRQDPGLGLRQIYYSMNVEVTDKGDVPEGYKVSRKEKRNFPLILESPSPNQTSLYFCASSLYSTDTQYFGPGTRLTVL
As to B9, the binding result in assay [3] is on record as “recognises”.

B10: TCR346 (TCR)
alpha TRAV29DV5 TRAJ48 CDR3: CAARDISNFGNEKLTF
Vbeta: GAVVSQHPSRVICKSGTSVKIECRSLDFQATTMFWYRQFPKQSLMLMATSNEGSKATYEQGVEKDKFLINHASLTLSTLTVTSAHPEDSSFYICSARDHTSGTYEQYFGPGTRLTVT
For the molecule B10, the binding result in assay [3] is listed as “recognises”.

B11: TCR33 (TCR, V domains shown)
Valpha: AQSVTQLGSHVSVSEGALVLLRCNYSSSVPPYLFWYVQYPNQGLQLLLKYTSAATLVKGINGFEAEFKKSETSFHLTKPSAHMSDAAEYFCAVSDSSYKLIFGSGTRLLVRP
Vbeta: DAGVIQSPRHEVTEMGQEVTLRCKPISGHDYLFWYRQTMMRGLELLIYFNNNVPIDDSGMPEDRFSAKMPNASFSTLKIQPSEPRDSAVYFCASQSGDTQYFGPGTRLTVL
Regarding B11, the binding result in assay [4] is given as “recognises”.

B12: TCR22 (TCR, V domains shown)
Valpha: AQSVAQPEDQVNVAEGNPLTVKCTYSVSGNPYLFWYVQYPNRGLQFLLKYITGDNLVKGSYGFEAEFNKSQTSFHLKKPSALVSDSALYFCAVRDDNAGNMLTFGGGTRLMVKP
Vbeta: DTGVSQNPRHKITKRGQNVTFRCDPISEHNRLYWYRQTLGQGPEFLTYFQNEAQLEKSRLLSDRFSAERPKGSFSTLEIQRTEQGDSAMYLCASSLANTGELFFGEGSRLTVL
For B12, in assay [1], the binding result is on record as “recognises”.

B13: TCR4 (TCR, V domains shown)
Valpha: AQSVAQPEDQVNVAEGNPLTVKCTYSVSGNPYLFWYVQYPNRGLQFLLKYITGDNLVKGSYGFEAEFNKSQTSFHLKKPSALVSDSALYFCAVRDAMGGSYIPTFGRGTSLIVHP
Vbeta: DGGITQSPKYLFRKEGQNVTLSCEQNLNHDAMYWYRQDPGQGLRLIYYSQIVNDFQKGDIAEGYSVSREKKESFPLTVTSAQKNPTAFYLCASSTGISEQFFGPGTRLTVL
Regarding B13, the binding result in assay [3] is listed as “recognises”.

B14: TCR18 (TCR, V domains shown)
Valpha: AQTVTQSQPEMSVQEAETVTLSCTYDTSESDYYLFWYKQPPSRQMILVIRQEAYKQQNATENRFSVNFQKAAKSFSLKISDSQLGDAAMYFCAYRDNFNKFYFGSGTKLNVKP
Vbeta: DSGVTQTPKHLITATGQRVTLRCSPRSGDLSVYWYQQSLDQGLQFLIQYYNGEERAKGNILERFSAQQFPDLHSELNLSSLELGDSALYFCASSGTGGAYNEQFFGPGTRLTVL
As to B14, the binding result in assay [1] is listed as “recognises”.
